{
  "source": "paper PMC12055985",
  "target": "gH/gL expressed on the surface of CHO-K1 cells (UniProt P89445)",
  "sequence (P89445 19-838, chain 1 of 2)": "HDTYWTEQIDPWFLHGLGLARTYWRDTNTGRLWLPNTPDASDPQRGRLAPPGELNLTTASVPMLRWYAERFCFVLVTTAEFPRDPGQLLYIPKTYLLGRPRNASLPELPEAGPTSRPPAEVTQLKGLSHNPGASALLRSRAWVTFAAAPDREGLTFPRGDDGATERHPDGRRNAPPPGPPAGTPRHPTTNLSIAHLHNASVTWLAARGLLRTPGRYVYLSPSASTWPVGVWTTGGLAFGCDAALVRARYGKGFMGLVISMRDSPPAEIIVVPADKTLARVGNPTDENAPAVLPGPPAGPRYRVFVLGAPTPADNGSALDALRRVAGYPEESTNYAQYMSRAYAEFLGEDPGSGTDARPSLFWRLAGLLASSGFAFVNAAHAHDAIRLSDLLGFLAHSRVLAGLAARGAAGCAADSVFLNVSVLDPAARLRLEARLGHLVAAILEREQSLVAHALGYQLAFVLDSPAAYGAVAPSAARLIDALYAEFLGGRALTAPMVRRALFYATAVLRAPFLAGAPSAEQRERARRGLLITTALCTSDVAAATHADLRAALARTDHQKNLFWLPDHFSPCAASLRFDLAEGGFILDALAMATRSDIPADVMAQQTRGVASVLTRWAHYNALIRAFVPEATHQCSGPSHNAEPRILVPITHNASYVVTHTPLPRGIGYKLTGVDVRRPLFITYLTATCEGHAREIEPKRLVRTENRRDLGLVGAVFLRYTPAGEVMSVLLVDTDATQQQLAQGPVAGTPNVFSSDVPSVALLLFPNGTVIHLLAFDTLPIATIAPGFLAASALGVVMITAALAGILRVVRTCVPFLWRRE",
  "sequence (P28278 17-224, chain 2 of 2, further chain)": "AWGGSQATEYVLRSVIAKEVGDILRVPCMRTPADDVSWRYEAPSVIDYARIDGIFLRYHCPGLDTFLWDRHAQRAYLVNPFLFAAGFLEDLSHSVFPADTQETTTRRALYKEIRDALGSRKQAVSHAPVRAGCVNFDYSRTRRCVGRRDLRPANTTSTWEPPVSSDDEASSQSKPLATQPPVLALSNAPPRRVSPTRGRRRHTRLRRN",
  "assay": "ELISA",
  "data": [
    {"substance": "HSV-2 gD (aa1-275) with C-terminal His tag (domain or fragment)", "values": [
      {"measurement": "EC50", "result": 1280, "unit": "nM"}
    ]}
  ]
}
